This note sets out measurements from patent US20180207278A1 (Amgen, published 2018).

Bounds are passed on as bounds.

Test [1] has as its target T1, GM-CSF (immobilized on the SPR sensor chip).
T1 construct: also called immobilized GM-CSF; Granulocyte-macrophage colony stimulating factor
The test can be described thus: SPR (Biacore 3000, GM-CSF immobilized on CM5 chip); antibody 5.4 mg/ml in 1xPBS after 14 days at 55 C. How it is done:
(§1) The surface plasmon resonance (SPR) method was established to determine the degree of antibody binding activity to immobilized GM-CSF (Biacore 3000/CM5 sensor chip/HBS-EP running buffer). The SPR method was qualified by performing a nine-point range test, from which precision (six replicate injections) and linearity (triplicate standard curves) were determined and tested.
(§2) […] Previous studies indicated stabilizing effects of: 20 mM acetate pH 5; 20 mM histidine pH 6; 250 mM glutamic acid; 250 mM threonine, 6% (w/v) sorbitol and 6% (w/v) mannitol. […] Antibody in 1×PBS was included as a control. At T0, T7 and T14 (days), samples were analyzed by SE-HPLC and SPR.

The target in test [2] is T1, GM-CSF (immobilized on the SPR sensor …). The test can be described thus: SPR (Biacore 3000, GM-CSF immobilized on CM5 chip); antibody 5.4 mg/ml in 20 mM acetate + 250 mM threonine after 14 days at 55 C. The procedure:
as §1, §2

Test [3] has the same target. The test can be described thus: SPR (Biacore 3000, GM-CSF immobilized on CM5 chip); antibody 5.4 mg/ml in 20 mM histidine + 250 mM threonine after 14 days at 55 C. (Surface plasmon resonance follows binding to a sensor surface in real time, without labels.)
Test [4] has the same target. The test can be described thus: SPR (Biacore 3000, GM-CSF immobilized on CM5 chip); antibody 5.4 mg/ml in 20 mM acetate + 250 mM glutamic acid after 14 days at 55 C. The procedure:
as §1, §2

For test [5] the target is unchanged. The test can be described thus: SPR (Biacore 3000, GM-CSF immobilized on CM5 chip); antibody 5.4 mg/ml in 20 mM histidine + 250 mM glutamic acid after 14 days at 55 C. The procedure:
as §1, §2

Test [6] shares this target. The test can be described thus: SPR (Biacore 3000, GM-CSF immobilized on CM5 chip); antibody 5.4 mg/ml in formulations 5-16 of Table 1 (all with mannitol or sorbitol) after 14 days at 55 C. How it is done:
as §1, §2

B1: human monoclonal IgG1 antibody that binds to and neutralizes human GM-CSF (antibody, V domains shown)
VH: QVQLVQSGAEVKKPGASVKVSCKAFGYPFTDYLLHWVRQAPGQGLEWVGWLNPYSGDTNYAQKFQGRVTMTRDTSISTAYMELSRLRSDDTAVYYCTRTTLISVYFDYWGQGTMVTVSS
VL: DIQMTQSPSSVSASVGDRVTIACRASQNIRNILNWYQQRPGKAPQLLIYAASNLQSGVPSRFSGSGSGTDFTLTINSLQPEDFATYYCQQSYSMPRTFGGGTKLEIKR
notes: also called the antibody; anti-GM-CSF antibody
Consider B1, for which the “binding activity relative to T0” value in test [1] is 62%; in test [2] it was 26%; in test [3], 85%; in test [4] it was 19%; in test [5], 91%; in test [6], more than 93%.
